The record followed here is PMC1635251.

What all share (assay): filter binding
Data set [1] deals with HIV-2 reverse transcriptase (HIV-2, UniProt P04584;P04584 613-1171;613-1051).
The target of data set [2] is T1, HIV-1 reverse transcriptase p66/p51 (HIV-1, UniProt P03366;P03366 600-1159;600-1039).
Data set [3] has as its target T1, HIV-1 reverse transcriptase p66/p51. The source holds these as a separate data set.
Data set [4] has the same target. The source holds these as a separate data set.

HIV-2 reverse transcriptase, sequence (P04584 613-1171, chain 1 of 2): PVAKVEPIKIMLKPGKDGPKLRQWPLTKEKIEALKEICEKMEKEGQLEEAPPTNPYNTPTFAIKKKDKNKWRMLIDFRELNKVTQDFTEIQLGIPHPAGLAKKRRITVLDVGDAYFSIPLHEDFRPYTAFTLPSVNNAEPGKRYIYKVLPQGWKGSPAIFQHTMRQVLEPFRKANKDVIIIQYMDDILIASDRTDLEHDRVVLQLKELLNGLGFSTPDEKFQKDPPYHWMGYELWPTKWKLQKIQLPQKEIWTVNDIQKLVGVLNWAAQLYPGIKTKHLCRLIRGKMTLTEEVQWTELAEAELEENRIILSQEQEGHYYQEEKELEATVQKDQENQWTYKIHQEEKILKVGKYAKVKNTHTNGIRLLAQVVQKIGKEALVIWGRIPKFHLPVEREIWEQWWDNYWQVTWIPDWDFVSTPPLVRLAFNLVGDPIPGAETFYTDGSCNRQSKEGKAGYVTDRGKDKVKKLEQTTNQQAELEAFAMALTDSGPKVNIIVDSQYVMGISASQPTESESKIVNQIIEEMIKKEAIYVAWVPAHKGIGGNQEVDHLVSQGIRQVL
HIV-2 reverse transcriptase, sequence (P04584 613-1051, chain 2 of 2): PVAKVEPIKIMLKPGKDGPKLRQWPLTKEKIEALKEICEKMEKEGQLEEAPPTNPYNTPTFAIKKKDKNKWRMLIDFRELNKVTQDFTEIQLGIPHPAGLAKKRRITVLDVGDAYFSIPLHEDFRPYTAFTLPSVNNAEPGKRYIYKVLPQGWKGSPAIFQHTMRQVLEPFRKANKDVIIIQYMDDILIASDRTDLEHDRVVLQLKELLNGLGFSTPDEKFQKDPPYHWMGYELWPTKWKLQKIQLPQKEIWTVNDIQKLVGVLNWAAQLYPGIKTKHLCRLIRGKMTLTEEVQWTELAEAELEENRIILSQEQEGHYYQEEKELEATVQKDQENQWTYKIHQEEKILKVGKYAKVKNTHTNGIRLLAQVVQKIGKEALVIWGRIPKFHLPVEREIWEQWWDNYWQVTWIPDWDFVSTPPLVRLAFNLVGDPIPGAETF

With CGACCG (XNA, phosphorothioate) [Hex-S1D-PS], the binding signal in data set [1] was 6.6 ± 1.7 relative binding (unit not printed); in data set [2] it was 18.3 ± 6 relative binding (unit not printed). Take TCGTGT (XNA, fully 2'-OMe) [Hex-S3D-2'OMe]: the binding signal in data set [2] was 2 ± 0.1 relative binding (unit not printed). On the same count and under the same terms, next, TCGTGT (ssDNA) [Hex-S3D]: 8.1 ± 1 relative binding (unit not printed). On to UCGUG (ssRNA) [Hex-S3R pentamer, 3'-shortened], for which, in data set [3], the binding result is reported as “no binding”.

Regarding TCGTGT (XNA, phosphorothioate) [Hex-S3D-PS], the binding signal in data set [1] is 24.9 ± 3.6 relative binding (unit not printed); in data set [2], 52.8 ± 9.8 relative binding (unit not printed).

Molecule UCGUGU (ssRNA) [Hex-S3R] yielded a Kd in data set [4] of 5.3 ± 0.5 µM. Take UCGUGU (XNA, 4-thio-U at position 4) [4-thioU-Hex-S3R]: the binding signal in data set [2] is 9.8 ± 0.5 relative binding (unit not printed). Turning to CGACCG (ssDNA) [Hex-S1D], the binding signal in data set [2] was 5.8 ± 0.6 relative binding (unit not printed).

On to CGACCG (XNA, fully 2'-OMe) [Hex-S1D-2'OMe], for which the binding signal in data set [2] is 0.5 ± 0.1 relative binding (unit not printed).

CGUGU (ssRNA) [Hex-S3R pentamer, 5'-shortened]: the binding result in data set [3] is reported as “no binding”. On to TCGTGT (XNA, LNA at position 1) [Hex-S3D-LNA], for which, in data set [2], the binding signal was 4.3 ± 0.4 relative binding (unit not printed).

As a reminder, the Kd is a measure of binding affinity in units of concentration. A higher Kd goes with lower affinity.
